The source of these data is patent US20260042834A1 (HBM ALPHA THERAPEUTICS, published 2026).

In one assay the target is T1, biotinylated CRH (human and mouse, not fully specified; biotinylated, position not stated).
T1 construct: also called Biotin-CRH; biotin-labeled CRH
T1 peptide: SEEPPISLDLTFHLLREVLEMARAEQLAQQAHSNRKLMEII
Nature of the assay: Octet BLI, biotinylated CRH on SA sensor. As to the method: Octet® Red 96e was used for affinity measurement. Octet® running buffer was prepared by diluting kinetics buffer 10× (Fortebio, Cat #18-1105) in PBS according to the manufacturer's instructions. Two columns of SA sensors (Fortebio, Cat #18-5019) were hydrated in running buffer for 10 mins, one for ligand capturing and the other for reference. Antibodies were 2-fold diluted and added into a 96-well plate. […] After a 60-second baseline step, sensors were dipped into analyte and buffer wells successively, with the association and dissociation time of 180 seconds and 800 seconds, respectively. […] Signals of reference wells and reference sensors were subtracted by selecting “Double reference” before data fitting.
(BLI is a label-free optical method that tracks binding on a fibre tip over time.)

In assay [1] the target is T2, corticotropin-releasing hormone (CRH) peptide (human and mouse (same sequence), not fully specified).
T2 peptide: T1 peptide
In words: cell-based or functional assay.

Residue numbers refer to the chain shown, from its start.

B1: PR006669 (antibody, human IgG1, kappa, V domains shown)
VH: EVQLVESGGGLVQPGGSLRLSCAASGFTFSDNWMSWVRQAPGKGLEWVANIKQDGSENYYVDSVKGRFTISRDNAKNSLYLQMNSLRAEDTAVYYCSRGLALWGWGQGTLVTVSS
VL: DIVMTHSPLSLPVTPGDPASISCRSSQSLLHSTGYNYLDWYLQKPGQSPQLLIYLGSNRASGVPDRFSGSGSGTDFTLKFIRVEAEDVGVYYCMQALQTPYTFGQGTKLEIKR
notes: Series 2; human IgG1 wildtype Fc; also called Hybridoma Clone 52g7
B1: binding with biotinylated CRH was characterised by a dissociation constant (Kd) of 0.12 nM.

B2: PR006746 (antibody, human IgG1, kappa, V domains shown)
VH: B1 VH with G55S
VL: B1 VL
notes: PTM-removal variant of PR006669
Regarding B2, in the assay with biotinylated CRH, the affinity, expressed as Kd, was 0.0751 nM; the koff (in general, the rate constant with which the complex falls apart) came out at 8.69e-05 s⁻¹; the kon (in general, a measure of how fast the partners come together) was determined as 1.16e+06 M⁻¹ s⁻¹.

B3: PR302334-27 (antibody, human IgG1, kappa, V domains shown)
VH: EVQLVESGGGLVQPGGSLRLSCAASGFTFSTYAMSWVRQAPGKGLEWVASIRSGGTTYYPDSVKGRFTISRDNSKNSLYLQMNSLRAEDTAVYYCTRGIDWGQGTTVTVSS
VL: DIQMTQSSLSASVSLGDRVTITCKASQSVNNDVAWYQQKPGKAPRLLIYYASNRYTGVPSRFSGSGSGTDFTFTISSLQPEDLATYFCQQDYSSWTFGGGTKVEIKR
notes: Humanized variant of PR302334
For the molecule B3, in the assay with biotinylated CRH, the Kd (in general, the concentration at which binding is half-saturated) was < 0.001 nM; the off-rate (koff) is < 1e-07 s⁻¹; the kon was 302000 M⁻¹ s⁻¹.

B4: PR302334-25 (antibody, human IgG1, kappa, V domains shown)
VH: B3 VH with Q13K, S74A
VL: B3 VL
notes: Humanized variant of PR302334
Turning to B4, in the assay with biotinylated CRH, the Kd was < 0.001 nM, the koff was < 1e-07 s⁻¹ and the kon turned out to be 285000 M⁻¹ s⁻¹.

B5: PR302334-11 (antibody, human IgG1, kappa, V domains shown)
VH: B3 VH with S77T
VL: B3 VL with L83I, F87Y
notes: Humanized variant of PR302334
In the case of B5, in the assay with biotinylated CRH, the Kd was < 0.001 nM, the koff is < 1e-07 s⁻¹ and the kon came to 684000 M⁻¹ s⁻¹.

B6: PR301777 (antibody, human IgG1, kappa, V domains shown)
VH: EMKLEESGGGLVQPGGSMKLSCVASGFTFSNYWMNWVRQSPEKGLEWVAEIRLKSNNYATHYAESVKGRFTISRDDSKSGVYLQMNNLGAEDTGIYYCTVGTLVYWGQGTLVTVSA
VL: DIVLTQSPASLAVSLGQRATISCRASQSVSTSTYNYMHWFQQKPGQPPKLLIKFASNLESGVPARFSGSGSGTDFTLNIHPVEEEDTATFYCQHSWEIPYTFGGGTKLEIKR
notes: Series 5; mouse variable domains with human IgG1 wildtype Fc
On to B6, for which the Kd with biotinylated CRH is 0.00124 nM.

B7: PR302309 (antibody, human IgG1, kappa, V domains shown)
VH: QIQLVQSGPELKKPGETVKISCKASGYTFTNYGMNWVKQAPGKVLKWMGWINTYTGEPIYTDDFKGRFAFSLETSASTAYLQINNLKNEDTATYFCSRSTMITTGGVFAYWGQGTLVTVSA
VL: DVLMAQTPLSLPVSLGDQASISCRSSQTIVHSDGNTYLEWYLQKPGQSPKLLIYKVSNRFSGVPDRFSGSGSGTDFTLKISRVEAEDLGVYYCFQGSHVPWTFGGGTKLEIKR
notes: Series 7; mouse variable domains with human IgG1 wildtype Fc
As for B7, in the assay with biotinylated CRH, the Kd worked out at 0.0153 nM, the koff was 4.03e-06 s⁻¹ and the kon stood at 263000 M⁻¹ s⁻¹.

B8: PR302341-43 (antibody, human IgG1, kappa, V domains shown)
VH: QVQLVQSGAEVKKPGASVKVSCKASGYTFTDYFMKWVRQAPGQGLEWMGVINPNNADIFYNQKFKGRVTMTVDKSTSTAYMELSSLRSEDTAVYYCARGTDRALFAYWGQGTLVTVSS
VL: DVVMTQTPLSSPVTLGQPASISCRSGQSIVHSDGNTYLEWYQQRPGQPPRLLIYKVSNRFSGVPDRFSGSGAGTDFTLKISRVEAEDLGVYYCFQGSHIPWTFGGGTKVEIKR
For the molecule B8, in assay [1], the “hCRHR1 Luciferase Reporter Assay IC50” value is 0.512 nM and the “mCrhr1 Luciferase Reporter Assay IC50” value came out at 1.37 nM.

B9: PR302341-44 (antibody, human IgG1, kappa, V domains shown)
VH: B8 VH with N55S, A56G
VL: B8 VL
Take B9: the “hCRHR1 Luciferase Reporter Assay IC50” value in assay [1] came out at 0.646 nM.

B10: PR302341-57 (antibody, human IgG1, kappa, V domains shown)
VH: B8 VH with G44R, N55Q, A56G, M70I, V72R, K74T, T76A
VL: B8 VL with T7S, S11L, P48S, A72S
Take B10: in assay [1], the “hCRHR1 Luciferase Reporter Assay IC50” value amounted to 0.573 nM and the “mCrhr1 Luciferase Reporter Assay IC50” value amounted to 6.48 nM.

B11: PR302341-48 (antibody, human IgG1, kappa, V domains shown)
VH: B8 VH with N55Q, A56G
VL: B8 VL with G34A
Take B11: in assay [1], the “hCRHR1 Luciferase Reporter Assay IC50” value was 0.507 nM and the “mCrhr1 Luciferase Reporter Assay IC50” value stood at 1.46 nM.

B12: PR302341-58 (antibody, human IgG1, kappa, V domains shown)
VH: B8 VH with G44R, M70I, V72R, K74T, T76A
VL: B8 VL with T7S, S11L, G34A, P48S, A72S
On to B12, for which, in assay [1], the “hCRHR1 Luciferase Reporter Assay IC50” value is 0.571 nM and the “mCrhr1 Luciferase Reporter Assay IC50” value is 3.54 nM.

B13: PR302341-56 (antibody, human IgG1, kappa, V domains shown)
VH: B8 VH with G44R, N55S, A56G, M70I, V72R, K74T, T76A
VL: B8 VL with T7S, S11L, P48S, A72S
As for B13, the “hCRHR1 Luciferase Reporter Assay IC50” value in assay [1] turned out to be 0.738 nM.

B14: PR302341-61 (antibody, human IgG1, kappa, V domains shown)
VH: B8 VH with G44R, M70I, V72R, K74T, T76A
VL: B8 VL with T7S, S11L, D33E, P48S, A72S
B14: in assay [1], the “hCRHR1 Luciferase Reporter Assay IC50” value came out at 1.88 nM and the “hCRHR1 Reporter IC50” value was determined as 1.82 nM.

B15: PR302341-45 (antibody, human IgG1, kappa, V domains shown)
VH: B8 VH with N55Q, A56G
VL: B8 VL
Turning to B15, in assay [1], the “hCRHR1 Luciferase Reporter Assay IC50” value turned out to be 0.35 nM and the “mCrhr1 Luciferase Reporter Assay IC50” value was 1.83 nM.

B16: PR302341-62 (antibody, human IgG1, kappa, V domains shown)
VH: B8 VH with G44R, N55S, A56G, M70I, V72R, K74T, T76A
VL: B8 VL with T7S, S11L, D33E, P48S, A72S
In the case of B16, the “hCRHR1 Luciferase Reporter Assay IC50” value in assay [1] came to 2.68 nM.

B17: PR302341-46 (antibody, human IgG1, kappa, V domains shown)
VH: B8 VH
VL: B8 VL with G34A
For B17, in assay [1], the “hCRHR1 Luciferase Reporter Assay IC50” value is 1.27 nM and the “mCrhr1 Luciferase Reporter Assay IC50” value was 1.52 nM.

B18: PR302341-67 (antibody, human IgG1, kappa, V domains shown)
VH: B8 VH with A56G
VL: B8 VL with G34A
With B18, the “hCRHR1 Luciferase Reporter Assay IC50” value in assay [1] amounted to 0.128 nM.

B19: PR302341-49 (antibody, human IgG1, kappa, V domains shown)
VH: B8 VH
VL: B8 VL with D33E
On to B19, for which the “hCRHR1 Luciferase Reporter Assay IC50” value in assay [1] worked out at 1.34 nM.

B20: PR302341-47 (antibody, human IgG1, kappa, V domains shown)
VH: B8 VH with N55S, A56G
VL: B8 VL with G34A
For the molecule B20, in assay [1], the “hCRHR1 Luciferase Reporter Assay IC50” value was found to be 1.04 nM and the “mCrhr1 Luciferase Reporter Assay IC50” value stood at 1.6 nM.

B21: PR302341-52 (antibody, human IgG1, kappa, V domains shown)
VH: B8 VH
VL: B8 VL with D33S
For B21, in assay [1], the “hCRHR1 Luciferase Reporter Assay IC50” value turned out to be 0.946 nM and the “mCrhr1 Luciferase Reporter Assay IC50” value came to 3.29 nM.

B22: PR302341-64 (antibody, human IgG1, kappa, V domains shown)
VH: B8 VH with G44R, M70I, V72R, K74T, T76A
VL: B8 VL with T7S, S11L, D33S, P48S, A72S
For B22, the “hCRHR1 Luciferase Reporter Assay IC50” value in assay [1] was 1.09 nM.

B23: PR302341-51 (antibody, human IgG1, kappa, V domains shown)
VH: B8 VH with N55Q, A56G
VL: B8 VL with D33E
For B23, the “hCRHR1 Luciferase Reporter Assay IC50” value in assay [1] was 1.66 nM.

B24: PR302341-55 (antibody, human IgG1, kappa, V domains shown)
VH: B8 VH with G44R, M70I, V72R, K74T, T76A
VL: B8 VL with T7S, S11L, P48S, A72S
In the case of B24, in assay [1], the “hCRHR1 Luciferase Reporter Assay IC50” value turned out to be 0.105 nM and the “mCrhr1 Luciferase Reporter Assay IC50” value is 3.19 nM.

B25: PR302341-69 (antibody, human IgG1, kappa, V domains shown)
VH: B8 VH with A56G
VL: B8 VL with D33S
On to B25, for which the “hCRHR1 Luciferase Reporter Assay IC50” value in assay [1] stood at 0.552 nM.

B26: PR302341-50 (antibody, human IgG1, kappa, V domains shown)
VH: B8 VH with N55S, A56G
VL: B8 VL with D33E
As for B26, the “hCRHR1 Luciferase Reporter Assay IC50” value in assay [1] is 1.48 nM.

B27: PR302341-60 (antibody, human IgG1, kappa, V domains shown)
VH: B8 VH with G44R, N55Q, A56G, M70I, V72R, K74T, T76A
VL: B8 VL with T7S, S11L, G34A, P48S, A72S
Turning to B27, in assay [1], the “hCRHR1 Luciferase Reporter Assay IC50” value was found to be 0.878 nM and the “mCrhr1 Luciferase Reporter Assay IC50” value worked out at 4.7 nM.

B28: PR302341-59 (antibody, human IgG1, kappa, V domains shown)
VH: B8 VH with G44R, N55S, A56G, M70I, V72R, K74T, T76A
VL: B8 VL with T7S, S11L, G34A, P48S, A72S
As to B28, in assay [1], the “hCRHR1 Luciferase Reporter Assay IC50” value worked out at 1.04 nM and the “mCrhr1 Luciferase Reporter Assay IC50” value worked out at 4 nM.

B29: PR302341-63 (antibody, human IgG1, kappa, V domains shown)
VH: B8 VH with G44R, N55Q, A56G, M70I, V72R, K74T, T76A
VL: B8 VL with T7S, S11L, D33E, P48S, A72S
On to B29, for which, in assay [1], the “hCRHR1 Luciferase Reporter Assay IC50” value was 2.05 nM.

B30: PR302341-54 (antibody, human IgG1, kappa, V domains shown)
VH: B8 VH with N55Q, A56G
VL: B8 VL with D33S
Regarding B30, in assay [1], the “hCRHR1 Luciferase Reporter Assay IC50” value was 0.732 nM and the “mCrhr1 Luciferase Reporter Assay IC50” value stood at 4.09 nM.

B31: PR302341-53 (antibody, human IgG1, kappa, V domains shown)
VH: B8 VH with N55S, A56G
VL: B8 VL with D33S
Consider B31, for which, in assay [1], the “hCRHR1 Luciferase Reporter Assay IC50” value was determined as 1.7 nM and the “mCrhr1 Luciferase Reporter Assay IC50” value worked out at 5.36 nM.

B32: PR302341-68 (antibody, human IgG1, kappa, V domains shown)
VH: B8 VH with A56G
VL: B8 VL with D33E
As to B32, the “hCRHR1 Luciferase Reporter Assay IC50” value in assay [1] was 0.418 nM.
